# Source: patent publication US20150315289A1 (published 2015)
# Positions of bridges follow the written chain, without caps; N, C: chain ends. No end group written: not given here.
# T1: linear phage-display peptide WTWNITKEYPQP
# T1 peptide: WTWNITKEYPQP
# T2: linear phage-display peptide WTWNITKAYPLP
# T2 peptide: WTWNITKAYPLP
# T3: cyclic phage-display peptide ACPEWWGTTC (disulfide 2-10)
# T3 peptide: ACPEWWGTTC
# Assays:
# [1] = target: T1, linear phage-display peptide …; assay: degenerate phage library panned and screened as before (hPAM4 and mPAM4)
# From the text: (§1) The first was a linear peptide library consisting of 12 amino acid sequences and the second was a cyclic peptide consisting of 7 amino acid sequences cyclized by a disulfide bridge.
# [2] = target: MUC17 (UniProt Q685J3 26-4493); assay: immunofluorescence co-localisation on human carcinoma cell lines (data not shown)
# [3] = target: T2, linear phage-display peptide …; assay: phage-displayed peptide screen with hPAM4 and mPAM4
# From the text: as §1
# [4] = target: T3, cyclic phage-display peptide ACPEWWGTTC; assay: phage-displayed peptide immunoreactivity, against the linear peptide
Binder,binding result [1],binding result [2],binding result [3],immunoreactivity relative to the linear sequence [4] [%]
"humanized PAM4 (hPAM4) IgG (antibody, V domains shown, humanized IgG1 kappa; used HRP-conjugated in some ELISAs and blots; also called clivatuzumab; HRP-hPAM4) VH: QVQLQQSGAEVKKPGASVKVSCEASGYTFPSYVLHWVKQAPGQGLEWIGYINPYNDGTQYNEKFKGKATLTRDTSINTAYMELSRLRSDDTAVYYCARGFGGSYGFAYWGQGTLVTVSS VL: DIQLTQSPSSLSASVGDRVTMTCSASSSVSSSYLYWYQQKPGKAPKLWIYSTSNLASGVPARFSGSGSGTDFTLTISSLQPEDSASYFCHQWNRYPYTFGGGTRLEIKR",binds,no binding,binds,
"murine PAM4 (mPAM4) (antibody, V domains shown, also called MAb PAM4; mAb-PAM4) VH: EVQLQESGPELVKPGASVKMSCKASGYTFPSYVLHWVKQKPGQGLEWIGYINPYNDGTQYNEKFKGKATLTSDKSSSTAYMELSRLTSEDSAVYYCARGFGGSYGFAYWGQGTLITVSA VL: DIVMTQSPAIMSASPGEKVTMTCSASSSVSSSYLYWYQQKPGSSPKLWIYSTSNLASGVPARFSGSGSGTSYSLTISSMEAEDAASYFCHQWNRYPYTFGGGTKLEIK",binds,,binds,~10
